Results on 13 molecules are retold here after article PMC10502012, “Molecular basis of TASL recruitment by the peptide/histidine transporter 1, PHT1” (Nature Communications, 2023).

Data set [1] has as its target chicken PHT1 (purified, wild type) (chicken).
In data set [2] the target is T1, chicken PHT1 L12A/L13A (purified, deglycosylated, cryo-EM sample) (Gallus gallus (chicken), UniProt A0A8V0ZFZ8;A0A8V0Z8V0, point mutant).
T1 construct: chicken PHT1 (SLC15A4), full length, 581 residues, with L12A and L13A; Residues 19-569 modelled in the map; also called plasma membrane mutant of PHT1; source: Expi293F GnT1-, transiently transfected, Strep-Tactin purified, treated with EndoH, gel filtration
Kind of data set: thermal shift (nanoDSF); PHT1 alone against PHT1-Sb27 at 0.4 mg/mL in 50 mM HEPES pH 7.5, 100 mM NaCl, 0.02% DDM/0.004% CHS. The note with it: both partners purified. (Differential scanning fluorimetry follows unfolding on heating by fluorescence.)

The target in data set [3] is T1, chicken PHT1 L12A/L13A (purified, …). In words: cryo-EM structure; PHT1 L12A/L13A with two-fold molar excess of Sb27, EndoH, gel filtration; 10 mM MOPS pH 7.0, 100 mM NaCl, 0.01% DDM/0.002% CHS. Conditions: both partners purified.

Positions count from the first letter of the chain named.

Chain of chicken PHT1 (purified, wild type) (chicken) (chain, as listed by the source): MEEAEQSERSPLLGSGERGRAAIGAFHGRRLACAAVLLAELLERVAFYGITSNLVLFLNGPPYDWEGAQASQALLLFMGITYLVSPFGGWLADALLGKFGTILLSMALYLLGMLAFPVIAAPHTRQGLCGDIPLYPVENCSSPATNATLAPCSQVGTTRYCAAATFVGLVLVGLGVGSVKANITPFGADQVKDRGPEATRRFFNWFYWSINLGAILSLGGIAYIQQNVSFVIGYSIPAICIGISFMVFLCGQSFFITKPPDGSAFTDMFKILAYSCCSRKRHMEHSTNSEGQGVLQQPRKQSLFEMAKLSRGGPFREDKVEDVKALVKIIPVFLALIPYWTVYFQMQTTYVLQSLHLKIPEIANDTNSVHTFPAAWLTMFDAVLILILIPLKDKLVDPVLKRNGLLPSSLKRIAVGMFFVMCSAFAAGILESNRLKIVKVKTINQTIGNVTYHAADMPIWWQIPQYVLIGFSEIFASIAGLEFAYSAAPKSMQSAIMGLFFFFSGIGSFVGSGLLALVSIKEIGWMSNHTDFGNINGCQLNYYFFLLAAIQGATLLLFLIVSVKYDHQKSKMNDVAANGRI

B1: 134 (VHH)
VHH: QVQLVESGGGLVQAGGSLRLSCAASGFPVYQTYMYWYRQAPGKEREWVAAINSTGYFTRYADSVKGRFTISRDNAKNTVYLQMNSLKPEDTAVYYCNVKDLGWWSEQYDYWGQGTQVTVSA
B1: in data set [1], the binding result is reported as “binds”.

B2: 140 (VHH)
VHH: B1 VHH with Y30W, Q31A, N52G, Y56W, R59V, L101Y, W104F, S105E, E106Y, Q107R
B2: the binding result in data set [1] is recorded as “binds”.

B3: 104 (VHH)
VHH: QVQLVESGGGLVQAGGSLRLSCAASGFPVWNSWMRWYRQAPGKEREWVAAINSYGDHTEYADSVKGRFTISRDNAKNTVYLQMNSLKPEDTAVYYCNVKDYGEWWNNYDYWGQGTQVTVSA
Regarding B3, in data set [1], the binding result was “binds”.

B4: 155 (VHH)
VHH: B3 VHH with S25G, W30K, N31T, Y54T, H57W, E103V, W104Q, W105T, N106Y, N107Y
For the molecule B4, the binding result in data set [1] is “binds”.

B5: 105 (VHH)
VHH: QVQLVESGGGLVQAGGSLRLSCAASGFPVYIKWMRWYRQAPGKEREWVAAISSNGEYTEYADSVKGRFTISRDNAKNTVYLQMNSLKPEDTAVYYCNVKDYGHTQWRYDYWGQGTQVTVSA
As to B5, the binding result in data set [1] is “binds”.

B6: 109 (VHH)
VHH: B5 VHH with Y30G, I31H, S52N, N54H, Y57F, H103W, Q105A, R107A
B6: the binding result in data set [1] is “binds”.

B7: 121 (VHH)
VHH: B5 VHH with Y30E, I31Q, K32S, S52N, N54W, Y101Q, H103Y, T104E, Q105H, W106Q
In the case of B7, the binding result in data set [1] is on record as “binds”.

B8: 143 (VHH)
VHH: QVQLVESGGGLVQAGGSLRLSCAASGFPVYSAVMYWYRQAPGKEREWVASIGSTGQHTYYADSVKGRFTISRDNAKNTVYLQMNSLKPEDTAVYYCNVKDVGEYMYWYDYWGQGTQVTVSA
For B8, the binding result in data set [1] is reported as “binds”.

B9: 146 (VHH)
VHH: QVQLVESGGGLVQAGGSLRLSCAASGFPVDTTNMHWYRQAPGKEREWVAAIHSSGTYTFYADSVKGRFTISRDNAKNTVYLQMNSLKPEDTAVYYCNVKDKGAHLWWYDYWGQGTQVTVSA
Consider B9, for which the binding result in data set [1] is listed as “binds”.

B10: 139 (VHH)
VHH: QVQLVESGGGSVQAGGSLRLSCAASGHIRWIKYLGWFRQAPGKEREGVAALYTYEGQTYYADSVKGRFTVSLDNAKNTVYLQMNSLKPEDTALYYCAAAYFGAFYPLSYDAYYYWGQGTQVTVSA
Consider B10, for which, in data set [1], the binding result is “binds”.

B11: sybody 27 (VHH)
VHH: QVQLVESGGGSVQAGGSLRLSCAASGDIETIWYLGWFRQAPGKEREGVAALSTVTGSTYYADSVKGRFTVSLDNAKNTVYLQMNSLKPEDTALYYCAAAYTGWMAPLWQWVYSYWGQGTQVTVSA
notes: synthetic nanobody selected from the sybody libraries; Expressed from the pSBinit plasmid; also called Sb27; Sb27a; source: E. coli MC1061 F-, periplasm, purified (Ni-NTA, gel filtration)
One may read the stoichiometry N as a count of units in the complex or per binding partner. With B11, the “increase of the melting temperature of PHT1” value in data set [2] was found to be 6 degrees. Further, in data set [3], the “stoichiometry N” value turned out to be 2.

B12: 111 (VHH)
VHH: QVQLVESGGGLVQAGGSLRLSCAASGFPVYSSWMRWYRQAPGKEREWVAAINSHGDYTEYADSVKGRFTISRDNAKNTVYLQMNSLKPEDTAVYSCNVKDHGYYMKHYDYWGQGTQVTVSA
Regarding B12, in data set [1], the binding result was “binds”.

B13: 116 (VHH)
VHH: QVQLVESGGGPVQAGGSLRLSCAASGFPVNTRTMHWYRQAPGKEREWVAAIYSSGQNTFYADSVKGRFTISRDNAKNTVYLQMNSLKPEDTAVYYCNVKDWGNIWEYDYWGQGTQVTVSA
With B13, the binding result in data set [1] is reported as “binds”.
